{
  "source": "patent US20210147519A1",
  "about": "(Regeneron, published 2021)",
  "binders": {"B1": {"name": "H1H20636D (bispecific antibody, V domains shown)", "VH 1": "QLQLQESGPGLVKPSETLSLTCTVSGGSISSSSYYWVWIRQPPGKGLEWIGNIYFSGSTYYNPSLKSRVTITVDTSKNQFSLKMTSVTAADTAVYYCARPFYGSRGDYYYGMDVWGQGTTVTVSS", "VH 2": "EIVLTQSPGTLSLSPGERATLSCRASQNVRSGYLAWYQQKPGQAPRLLIYGTSTRVTGIPDRFSGFGSGTDFTLTISRLEPEDFAVYYCQQYGNSPLFTFGGGTKVEIK", "VL": "not shown", "notes": "also called anti-IsdB x anti-C1q bispecific antibody"}, "B2": {"name": "H1H20645D (bispecific antibody, V domains shown)", "VH 1": "B1 VH 1", "VH 2": "EVQLVQSGPEVKKPGESLKIACKASGYSFTSYWIGWVRQMPGKGLEWMGIIFPADSDTRYSPSFQGQVTISADKSITTAYLQWRSLQASDTAKYYCVRHVRWSGENWGQGTLVTVSS", "VL": "not shown", "notes": "as for B1"}},
  "key": {"[1]": {"target": "T1, native human complement component C1q protein purified from human serum (Quidel) (human, UniProt P02745 23-245; P02746 28-253; P02747 29-245)", "T1 construct": "the protein assayed was bought native serum C1q (Quidel); no signal peptide limits are stated; also called hC1q; human C1q", "T1 sequence (P02745 23-245 limits assumed, chain 1 of 3)": "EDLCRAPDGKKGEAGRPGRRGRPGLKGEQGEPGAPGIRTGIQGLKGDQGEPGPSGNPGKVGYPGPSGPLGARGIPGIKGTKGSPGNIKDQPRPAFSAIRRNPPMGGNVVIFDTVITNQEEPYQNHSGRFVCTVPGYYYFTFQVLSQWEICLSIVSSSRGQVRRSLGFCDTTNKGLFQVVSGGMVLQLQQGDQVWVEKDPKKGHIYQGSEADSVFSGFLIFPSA", "T1 sequence (P02746 28-253 limits assumed, chain 2 of 3)": "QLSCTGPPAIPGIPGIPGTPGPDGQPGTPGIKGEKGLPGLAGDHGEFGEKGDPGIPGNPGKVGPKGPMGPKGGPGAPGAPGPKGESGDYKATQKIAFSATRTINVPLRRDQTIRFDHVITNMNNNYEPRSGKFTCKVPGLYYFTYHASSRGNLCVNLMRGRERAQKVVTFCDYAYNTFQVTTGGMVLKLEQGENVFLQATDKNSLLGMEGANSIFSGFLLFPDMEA", "T1 sequence (P02747 29-245 limits assumed, chain 3 of 3)": "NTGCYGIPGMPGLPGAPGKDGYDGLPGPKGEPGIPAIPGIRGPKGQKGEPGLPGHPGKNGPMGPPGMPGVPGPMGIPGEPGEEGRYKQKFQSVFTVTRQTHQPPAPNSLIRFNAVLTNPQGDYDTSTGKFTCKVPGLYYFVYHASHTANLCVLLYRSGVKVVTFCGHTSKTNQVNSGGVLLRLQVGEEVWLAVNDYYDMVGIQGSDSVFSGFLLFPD", "assay": "competition ELISA, 30 pM biot-hC1q, competitor plate-coated hIgG3-k"}, "[2]": {"target": "T1, native human complement component C1q …", "assay": "SPR Biacore, captured Ab, hC1q analyte, 37C"}, "[3]": {"target": "T2, Recombinant bacterial IsdB expressed with a hexahistidine tag (IsdB-6xHis; REGN2655) (Staphylococcus aureus, UniProt A6QG30 42-613)", "T2 sequence (A6QG30 42-613, tags left off)": "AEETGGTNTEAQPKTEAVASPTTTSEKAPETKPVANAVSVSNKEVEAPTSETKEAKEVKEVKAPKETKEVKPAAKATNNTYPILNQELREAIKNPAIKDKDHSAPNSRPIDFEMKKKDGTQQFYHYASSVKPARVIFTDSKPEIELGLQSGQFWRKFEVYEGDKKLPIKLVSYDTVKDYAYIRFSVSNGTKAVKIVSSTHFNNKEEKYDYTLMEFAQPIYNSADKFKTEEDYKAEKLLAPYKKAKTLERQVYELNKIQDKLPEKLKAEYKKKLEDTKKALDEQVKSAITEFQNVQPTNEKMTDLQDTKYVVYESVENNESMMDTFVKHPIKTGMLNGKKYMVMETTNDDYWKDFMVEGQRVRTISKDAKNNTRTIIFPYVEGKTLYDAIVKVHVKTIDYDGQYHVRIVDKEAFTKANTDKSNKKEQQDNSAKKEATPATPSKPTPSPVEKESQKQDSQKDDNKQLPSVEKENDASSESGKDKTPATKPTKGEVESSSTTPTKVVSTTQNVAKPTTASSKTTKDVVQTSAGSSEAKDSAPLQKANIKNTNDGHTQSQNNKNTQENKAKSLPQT", "assay": "SPR Biacore, captured Ab, IsdB-6xHis analyte, 37C"}, "[4]": {"target": "T2, Recombinant bacterial IsdB expressed …", "assay": "SPR Biacore, captured Ab, IsdB-6xHis analyte, 25C"}, "[5]": {"target": "T1, native human complement component C1q …", "assay": "competition ELISA, 6 nM biot-hC1q, competitor plate-coated hIgG2-k"}, "[6]": {"target": "T1, native human complement component C1q …", "assay": "competition ELISA, 6 nM biot-hC1q, competitor plate-coated hIgM"}, "[7]": {"target": "T1, native human complement component C1q …", "assay": "cell-based or functional assay"}, "[8]": {"target": "T3, IsdB expressed on the surface of S. aureus Wood 46 (Staphylococcus aureus)", "T3 construct": "whole, on cells", "T3 sequence (Q2FZF0 41-613)": "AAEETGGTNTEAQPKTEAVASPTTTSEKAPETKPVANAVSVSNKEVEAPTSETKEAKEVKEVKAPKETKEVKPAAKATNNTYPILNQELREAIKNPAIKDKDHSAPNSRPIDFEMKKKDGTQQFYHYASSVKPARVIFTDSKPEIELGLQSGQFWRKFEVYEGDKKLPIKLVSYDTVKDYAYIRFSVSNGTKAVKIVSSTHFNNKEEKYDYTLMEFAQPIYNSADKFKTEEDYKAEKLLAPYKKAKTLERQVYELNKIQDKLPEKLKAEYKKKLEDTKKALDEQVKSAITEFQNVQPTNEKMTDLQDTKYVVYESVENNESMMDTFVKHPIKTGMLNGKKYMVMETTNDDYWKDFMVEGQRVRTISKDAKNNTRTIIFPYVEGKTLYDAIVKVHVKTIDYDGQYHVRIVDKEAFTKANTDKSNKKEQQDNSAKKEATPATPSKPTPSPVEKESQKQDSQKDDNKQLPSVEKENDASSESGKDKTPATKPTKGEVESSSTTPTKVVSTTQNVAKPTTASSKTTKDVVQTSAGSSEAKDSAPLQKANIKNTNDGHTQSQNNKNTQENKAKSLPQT", "assay": "ELISA on plate-coated S. aureus Wood 46", "experimental": "Briefly, S. aureus Wood 46 was grown in RPMI overnight, washed in PBS and adjusted to an OD₆₀₀ of 0.25. MaxiSorp 96 well microtiter plates were coated overnight with 100 μl of S. aureus culture per well. Plates were washed and blocked with 3% BSA. […] Anti-human HRP conjugated secondary antibody was added to washed plates. Luminescence reagents (SuperSignal Pico) were then added to the wells and signal was detected in a plate reader (Victor X3 plate reader, Perkin Elmer) immediately. Luminescence values were analyzed by a four-parameter logistic equation over a 7-point response curve (GraphPad Prism) to determine the binding EC₅₀, of the antibodies."}, "[9]": {"target": "T1, native human complement component C1q …", "assay": "competition ELISA, 30 pM biot-hC1q, competitor plate-coated hIgG1-k"}, "[10]": {"target": "T1, native human complement component C1q …", "assay": "cell-based or functional assay", "remark": "listed apart in the source"}, "[11]": {"target": "T1, native human complement component C1q …", "assay": "SPR Biacore, captured Ab, hC1q analyte, 25C"}, "[12]": {"target": "T1, native human complement component C1q …", "assay": "cell-based or functional assay", "remark": "listed apart in the source"}},
  "data": [
    {"binder": "B1", "values": [
      {"measurement": "% Blockade with 30 nM bispecific Ab", "setting": "[1]", "result": -11, "unit": "%"},
      {"measurement": "Kd", "setting": "[2]", "result": 2.73, "unit": "nM"},
      {"measurement": "koff", "setting": "[2]", "result": 0.0179, "unit": "s⁻¹"},
      {"measurement": "kon", "setting": "[2]", "result": "6.57e+06", "unit": "M⁻¹ s⁻¹"},
      {"measurement": "t1/2", "setting": "[2]", "result": 0.64, "unit": "min"},
      {"measurement": "Kd", "setting": "[3]", "result": 17.4, "unit": "nM"},
      {"measurement": "koff", "setting": "[3]", "result": 0.00144, "unit": "s⁻¹"},
      {"measurement": "kon", "setting": "[3]", "result": 82800, "unit": "M⁻¹ s⁻¹"},
      {"measurement": "t1/2", "setting": "[3]", "result": 8.04, "unit": "min"},
      {"measurement": "Kd", "setting": "[4]", "result": 4.98, "unit": "nM"},
      {"measurement": "koff", "setting": "[4]", "result": 0.000378, "unit": "s⁻¹"},
      {"measurement": "kon", "setting": "[4]", "result": 75800, "unit": "M⁻¹ s⁻¹"},
      {"measurement": "t½", "setting": "[4]", "result": 30.6, "unit": "min"},
      {"measurement": "% Blockade with 600 nM bispecific Ab", "setting": "[5]", "result": 20, "unit": "%"},
      {"measurement": "% Blockade with 600 nM bispecific Ab", "setting": "[6]", "result": 11, "unit": "%"},
      {"measurement": "C1q deposition on S. aureus Cowan I EC50", "setting": "[7]", "result": 8.54, "unit": "nM"},
      {"measurement": "EC50", "setting": "[8]", "result": 9.52, "unit": "nM"},
      {"measurement": "% Blockade with 30 nM bispecific Ab", "setting": "[9]", "result": -29, "unit": "%"},
      {"measurement": "Classical Pathway hemolysis assay % inhibition", "setting": "[10]", "result": 0, "unit": "%"},
      {"measurement": "Kd", "setting": "[11]", "result": 2.12, "unit": "nM"},
      {"measurement": "koff", "setting": "[11]", "result": 0.0102, "unit": "s⁻¹"},
      {"measurement": "kon", "setting": "[11]", "result": "4.81e+06", "unit": "M⁻¹ s⁻¹"},
      {"measurement": "t½", "setting": "[11]", "result": 1.14, "unit": "min"}
    ]},
    {"binder": "B2", "values": [
      {"measurement": "% Blockade with 30 nM bispecific Ab", "setting": "[1]", "result": 87, "unit": "%"},
      {"measurement": "IC50", "setting": "[1]", "result": 5.3, "unit": "nM"},
      {"measurement": "Kd", "setting": "[2]", "result": 0.88, "unit": "nM"},
      {"measurement": "koff", "setting": "[2]", "result": 0.0317, "unit": "s⁻¹"},
      {"measurement": "kon", "setting": "[2]", "result": "3.6e+07", "unit": "M⁻¹ s⁻¹"},
      {"measurement": "t1/2", "setting": "[2]", "result": 0.36, "unit": "min"},
      {"measurement": "Kd", "setting": "[3]", "result": 19.1, "unit": "nM"},
      {"measurement": "koff", "setting": "[3]", "result": 0.00155, "unit": "s⁻¹"},
      {"measurement": "kon", "setting": "[3]", "result": 81200, "unit": "M⁻¹ s⁻¹"},
      {"measurement": "t1/2", "setting": "[3]", "result": 7.43, "unit": "min"},
      {"measurement": "Kd", "setting": "[4]", "result": 9.95, "unit": "nM"},
      {"measurement": "koff", "setting": "[4]", "result": 0.000551, "unit": "s⁻¹"},
      {"measurement": "kon", "setting": "[4]", "result": 55400, "unit": "M⁻¹ s⁻¹"},
      {"measurement": "t½", "setting": "[4]", "result": 21, "unit": "min"},
      {"measurement": "% Blockade with 600 nM bispecific Ab", "setting": "[5]", "result": 87, "unit": "%"},
      {"measurement": "IC50", "setting": "[5]", "result": 18, "unit": "nM"},
      {"measurement": "% Blockade with 600 nM bispecific Ab", "setting": "[6]", "result": 95, "unit": "%"},
      {"measurement": "IC50", "setting": "[6]", "result": 13, "unit": "nM"},
      {"measurement": "C1q deposition on S. aureus Cowan I EC50", "setting": "[7]", "result": 0.298, "unit": "nM"},
      {"measurement": "EC50", "setting": "[8]", "result": 11.9, "unit": "nM"},
      {"measurement": "% Blockade with 30 nM bispecific Ab", "setting": "[9]", "result": 94, "unit": "%"},
      {"measurement": "IC50", "setting": "[9]", "result": 0.84, "unit": "nM"},
      {"measurement": "Kd", "setting": "[11]", "result": 0.158, "unit": "nM"},
      {"measurement": "koff", "setting": "[11]", "result": 0.00452, "unit": "s⁻¹"},
      {"measurement": "kon", "setting": "[11]", "result": "2.86e+07", "unit": "M⁻¹ s⁻¹"},
      {"measurement": "t½", "setting": "[11]", "result": 2.56, "unit": "min"},
      {"measurement": "inhibition of CDC of Daudi cells, IC50 [M]", "setting": "[12]", "result": "3.4e-08", "unit": "M"},
      {"measurement": "inhibition of CDC of Daudi cells, Max % Inhibition", "setting": "[12]", "result": "≥ 99", "unit": "%"}
    ]}
  ]
}
